Kd data for one molecule are collected here from PMC9254666.

For this assay, the target named is p53 (Homo sapiens), P04637. As to the kind of experiment: ELISA. The conditions noted are these: remark: other sources report otherwise. In general terms: An ELISA detects its analyte on a solid surface through an enzyme-linked reagent.
Sequence of p53 (Homo sapiens), P04637 (P04637 whole entry): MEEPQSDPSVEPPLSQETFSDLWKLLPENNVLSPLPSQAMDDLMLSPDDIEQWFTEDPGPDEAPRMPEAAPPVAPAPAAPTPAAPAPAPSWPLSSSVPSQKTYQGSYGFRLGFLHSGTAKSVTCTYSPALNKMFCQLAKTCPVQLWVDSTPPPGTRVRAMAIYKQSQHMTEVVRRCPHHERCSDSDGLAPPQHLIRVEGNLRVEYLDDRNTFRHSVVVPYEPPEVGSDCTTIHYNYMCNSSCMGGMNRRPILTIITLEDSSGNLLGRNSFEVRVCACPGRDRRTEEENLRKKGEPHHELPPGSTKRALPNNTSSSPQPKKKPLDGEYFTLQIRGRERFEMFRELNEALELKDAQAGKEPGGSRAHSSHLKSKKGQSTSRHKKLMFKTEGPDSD

B1: HDMX, O15151 (protein)
chain: MTSFSTSAQCSTSDSACRISPGQINQVRPKLPLLKILHAAGAQGEMFTVKEVMHYLGQYIMVKQLYDQQEQHMVYCGGDLLGELLGRQSFSVKDPSPLYDMLRKNLVTLATATTDAAQTLALAQDHSMDIPSQDQLKQSAEESSTSRKRTTEDDIPTLPTSEHKCIHSREDEDLIENLAQDETSRLDLGFEEWDVAGLPWWFLGNLRSNYTPRSNGSTDLQTNQDVGTAIVSDTTDDLWFLNESVSEQLGVGIKVEAADTEQTSEEVGKVSDKKVIEVGKNDDLEDSKSLSDDTDVEVTSEDEWQCTECKKFNSPSKRYCFRCWALRKDWYSDCSKLTHSLSTSDITAIPEKENEGNDVPDCRRTISAPVVRPKDAYIKKENSKLFDPCNSVEFLDLAHSSESQETISSMGEQLDNLSEQRTDTENMEDCQNLLKPCSLCEKRPRDGNIIHGRTGHLVTCFHCARRLKKAGASCPICKKEIQLVIKVFIA
For orientation: Kd means a measure of binding affinity in units of concentration. Read a low Kd as a tighter complex. On to B1, for which the Kd came out at 4.4 nM.
